Test in all cases: EMSA
Common to all, as to conditions: LightShift Chemiluminescent EMSA kit protocol; 20 fmol biotin-labeled DNA, 4 pmol protein (where stated); buffer, salt, pH and temperature not stated

The target in one data set is T1, OsWRKY121 (Oryza sativa) (UniProt Q75KW2).
T1 sequence: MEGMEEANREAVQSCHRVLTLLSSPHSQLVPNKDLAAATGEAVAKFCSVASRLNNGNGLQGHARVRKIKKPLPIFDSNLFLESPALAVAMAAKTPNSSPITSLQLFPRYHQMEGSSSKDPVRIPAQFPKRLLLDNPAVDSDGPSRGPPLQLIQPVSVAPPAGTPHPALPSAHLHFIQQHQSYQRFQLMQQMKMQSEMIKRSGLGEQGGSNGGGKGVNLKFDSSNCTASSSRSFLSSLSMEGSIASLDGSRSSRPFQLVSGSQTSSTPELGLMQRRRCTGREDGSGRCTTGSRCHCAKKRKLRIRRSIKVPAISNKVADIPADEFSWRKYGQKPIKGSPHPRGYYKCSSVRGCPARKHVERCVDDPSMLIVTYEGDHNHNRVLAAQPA

The next data set deals with OsWRKY71 (Oryza sativa) (UniProt Q6QHD1).
Chain of OsWRKY71 (Oryza sativa) (Q6QHD1 whole entry): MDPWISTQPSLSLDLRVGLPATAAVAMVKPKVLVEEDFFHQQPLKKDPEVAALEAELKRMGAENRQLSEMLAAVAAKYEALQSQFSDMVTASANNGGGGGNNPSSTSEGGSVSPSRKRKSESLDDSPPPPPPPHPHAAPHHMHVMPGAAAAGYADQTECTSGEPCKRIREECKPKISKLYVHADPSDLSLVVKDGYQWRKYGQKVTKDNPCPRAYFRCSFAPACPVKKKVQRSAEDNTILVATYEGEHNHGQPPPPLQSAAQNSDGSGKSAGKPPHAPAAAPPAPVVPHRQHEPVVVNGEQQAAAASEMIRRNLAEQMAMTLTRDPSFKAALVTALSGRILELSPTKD
Data set [1] deals with GmRAV1 (Glycine max), ORF:a1ee9a9b.
Chain of GmRAV1 (Glycine max), ORF:a1ee9a9b (chain, as listed by the source): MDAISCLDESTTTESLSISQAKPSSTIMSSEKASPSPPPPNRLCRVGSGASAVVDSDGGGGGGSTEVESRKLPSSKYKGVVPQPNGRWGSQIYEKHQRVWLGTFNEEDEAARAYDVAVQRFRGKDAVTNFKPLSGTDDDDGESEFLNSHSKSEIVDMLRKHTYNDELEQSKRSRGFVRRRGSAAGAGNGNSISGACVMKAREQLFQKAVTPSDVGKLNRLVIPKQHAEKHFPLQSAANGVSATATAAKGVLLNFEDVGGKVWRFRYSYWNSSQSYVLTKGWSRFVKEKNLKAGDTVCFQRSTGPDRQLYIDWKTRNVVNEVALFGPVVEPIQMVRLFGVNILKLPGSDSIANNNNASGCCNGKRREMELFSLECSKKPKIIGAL

Turning to “AACAGCTTGTTGACTGGCTCCCTAGAGCTTTTTGTAAGTTGATCATCGAAGTAGCTAGTTCTCTTCACTTATCAGTCATCACTGTTCTATGTTCTATCTGCATTTTCCTTGATTTTGTACTTTTCCTGAACGAAAGGACAATCCTTAGCCATCATAATGCTATGATCGACTTATTCTGAAGTCATCCGGCCTCGATCCT (double strand) [OsNF-YC4 promoter 198-bp]”, the binding entry in the data set with OsWRKY121 (Oryza sativa) is given as “binds”.
Regarding “ACCAGAGTTCTTTTTCCCCCTCTTCTACATAAACGAAAACAGCTTGTTGACTGGCTCCCTAGAGCTTTTTGTAAGTTGATCATCGAAGTAGCTAGTTCTCTTCACTTATCAGTCATCACTGTTCTATGTTCTATCTGCATTTTCCTTGATTTTGTACTTTTCCTGAACGAAAGGACAATCCTTAGCCATCATAATGCTATGATCGACTTATTCTGAAGTCATCCGGCCTCGATCCTCTTTTGT (double strand) [OsNF-YC4 promoter P5]”, the binding result in the data set with OsWRKY71 (Oryza sativa) and with OsWRKY121 (Oryza sativa) was “binds” each time.
“AGCATTATGATGGCTAAGGATTGTCCTTTCGTTCAGGAAAAGTACAAAATCAAGGAAAATGCAGA (double strand) [OsNF-YC4 promoter P4]”: in the data set with OsWRKY71 (Oryza sativa), the binding entry is given as “no binding”.
Take “CCCTAATATTGTGAACAAACTTTGTTGGTAATGTAAAAAAAATTAAAAGAAACAAGATTAAATTACGTATTTAATAATTTAAGATTAATGTTGTTTAATTTGATTTTTTAAATATTTATCTTTCTTTTGAATTTGATTCTTTAGTTCAC (double strand) [GmNF-YC4-1 promoter P6]”: the binding result in data set [1] is recorded as “binds”.
As to “GATTAATAATATCCCTAATATTGTGAACAAACTTTGTTGGTAATGTAAAAAAAATTAAAAGAAACAAGATTAAATTACGTATTTAATAATTTAAGATTAA (double strand) [GmNF-YC4-1 promoter P3]”, in data set [1], the binding result was “binds”.
On the same count and under the same terms, the entry for “GGATTACATTGAGTAATGCACATAAATTATTATAAACCTTCCATATTTGTCTTCAACAAATAATCCTAAAAATTAATGTTAACAAAAACTGACCACCTATGTTTTTAAATTAAGAAAGCATG (double strand) [GmNF-YC4-1 promoter P2]” is “binds”; for “GGCATTGACATGGATGGATGGAACACCCTCATAGTCACATGCCACAACAGAGTAACGCTAAACAAAATGTATTAACAAAAACTATAGGATCATGCTTTCTTAATTTAAAAACATAGG (double strand) [GmNF-YC4-1 promoter P1]” it is “no binding”.
The same measure, in the same setting: the result for “GGCATTGACATGGATGGATGGAACACCCTCATAGTCACATGCCACAACAGAGTAACGCTAAACAAAATGTATTAACAAAAACTATAGGATCATGCTTTCTTAATTTAAAAACATAGGTGGTCAGTTTTTGTTAACATTAATTTTTAGGATTATTTGTTGAAGACAAATATGGAAGGTTTATAATAATTTATGTGCATTACTCAATGTAATCC (double strand) [GmNF-YC4-1 promoter P5]” reads “binds”.
For “TAAAAGAAACAAGATTAAATTACGTATTTAATAATTTAAGATTAATGTTGTTTAATTTGATTTTTTAAATATTTATCTTTCTTTTGAATTTGATTCTTTAGTTCACTTAAG (double strand) [GmNF-YC4-1 promoter P4]”, the binding entry in data set [1] is listed as “no binding”.
In the case of “TCCTGAACGAAAGGACAATCCTTAGCCATCATAATGCTATGATCGACTTATTCTGAAGTCATCCGGCCTCGATCCTCTTTTGT (double strand) [OsNF-YC4 promoter P3]”, the binding result with OsWRKY71 (Oryza sativa) and with OsWRKY121 (Oryza sativa) was “no binding” in each case.
Consider “TGGCTCCCTAGAGCTTTTTGTAAGTTGATCATCGAAGTAGCTAGTTCTCTTCACTTATCAGTCATCACTGTTCTATGTTCTATCTGCATTTTCCTTGATTTTGTACTTTTCCTGAACGAAAGGACAATCCTT (double strand) [OsNF-YC4 promoter P2]”, for which the binding entry with OsWRKY71 (Oryza sativa) and in the data set with OsWRKY121 (Oryza sativa) was “binds” in each case.
